Data: publication PMC10408046, “Specific detection of tau seeding activity in Alzheimer’s disease using rationally designed biosensor cells” (Molecular Neurodegeneration, 2023)

What was measured:
[1] = biological target: pseudoacetylated tau (244:378) P301L 3xKQ probe with (EAAAK)3 linker to mTurquoise2 or mNeonGreen (UniProt P10636)
[2] = biological target: the molecule itself; assay: FRET or BRET; FRET between the two differently labelled copies of the probe, read by flow cytometry; HEK293T transiently transfected, exposed 24 h to serial dilutions of human AD brain extract with Lipofectamine 2000 (1% vol/vol) in Opti-MEM

**Q.** With “seeding-competent tau from human Alzheimer's disease brain (from UniProt P10636 1-758) (natural protein)” as the molecule, how does the seeding signal (FRET, flow cytometry) in the novel biosensor HEK293T clone 18: tau-immunodepleted AD brain material against the starting material [1] read?
**A.** 82.3%

B1: pseudoacetylated tau (244:378) P301L 3xKQ probe with (EAAAK)3 linker to mTurquoise2 or mNeonGreen (domain or fragment)
chain: QTAPVPMPDLKNVKSKIGSTENLKHQPGGGKVQIINKKLDLSNVQSKCGSKDNIKHVLGGGSVQIVYQPVDLSQVTSQCGSLGNIHHKPGGGQVEVKSEKLDFKDRVQSKIGSLDNITHVPGGGNKKIETHKLTFEAAAKEAAAKEAAAK
notes: microtubule associated protein tau, amino acids 244 to 378, P301L and lysines 311, 317 and 321 changed to glutamines to mimic acetylation (3xKQ); Both labelled copies come from one construct with a T2A self-cleaving peptide; a small amount of uncleaved polypeptide was seen by western blot; also called 3xKQ mutant; pseudoacetylated (EAAAK)3 probe; source: HEK293T, transiently transfected, in cells
**Q.** Which “fold increase in FRET-positive cells against the probe without 3xKQ” value [2] does the source give for B1 here?
**A.** ~3 fold
